We go through five molecules from article PMC7994586, “The box C/D snoRNP assembly factor Bcd1 interacts with the histone chaperone Rtt106 and controls its transcription dependent activity” (Nature Communications, 2021).

B1: recombinant fragment Rtt106p-M (Rtt106p_(65-320)), purified (domain or fragment, S. cerevisiae, UniProt P40161 65-320, looked up)
chain: DEISETNTIFKLEGVSVLSPLRKKLDLVFYLSNVDGSPVITLLKGNDRELSIYQLNKNIKMASFLPVPEKPNLIYLFMTYTSCEDNKFSEPVVMTLNKENTLNQFKNLGLLDSNVTDFEKCVEYIRKQAILTGFKISNPFVNSTLVDTDAEKINSFHLQCHRGTKEGTLYFLPDHIIFGFKKPILLFDASDIESITYSSITRLTFNASLVTKDGEKYEFSMIDQTEYAKIDDYVKRKQMKDKSMSEELKAKSKSKG
notes: Rtt106p, yeast, residues 65-320 (tandem PH1 and PH2 domains); Native MS mass 29,695 Da; also called 65-320 (M) domain of Rtt106p
B5: recombinant Bcd1pFL, purified (natural protein, S. cerevisiae, UniProt P38772 1-366, looked up)
chain: MAVLCGVCGIKEFKYKCPRCLVQTCSLECSKKHKTRDNCSGQTHDPKEYISSEALKQADDDKHERNAYVQRDYNYLTQLKRMVHVQKMDARMKNKRVLGPVGGHNSNFKKRRYDIDEDDRDSTECQRIIRRGVNCLMLPKGMQRSSQNRSKWDKTMDLFVWSVEWILCPMQEKGEKKELFKHVSHRIKETDFLVQGMGKNVFQKCCEFYRLAGTSSCIEGEDGSETKEERTQILQKSGLKFYTKTFPYNTTHIMDSKKLVELAIHEKCIGELLKNTTVIEFPTIFVAMTEADLPEGYEVLHQEPRPLEHTSTLNKFIDNAREEEDAEEDSQPTEEPVQKETQDASDSDSDSDDDYNPGLSMDFLTA
notes: Bcd1p, S. cerevisiae, full length; Detected by native MS with two zinc ions (42,752 Da); also called Bcd1FL; full-length Bcd1p

Where no end group is shown, it is not given here.

Experiment [1] concerns the target B5. As to the kind of experiment: ITC; 293 K, 10 mM NaPi pH 7.5, 150 mM NaCl, 0.5 mM TCEP; 40 μM titrated, 400 μM titrant. The note with it: both partners purified.
Experiment [2] concerns the target T1, Rtt106p_(65-301) bound to Bcd1p_(120-303) (S. cerevisiae, UniProt P40161 65-301; P38772 120-303).
T1 chain 1: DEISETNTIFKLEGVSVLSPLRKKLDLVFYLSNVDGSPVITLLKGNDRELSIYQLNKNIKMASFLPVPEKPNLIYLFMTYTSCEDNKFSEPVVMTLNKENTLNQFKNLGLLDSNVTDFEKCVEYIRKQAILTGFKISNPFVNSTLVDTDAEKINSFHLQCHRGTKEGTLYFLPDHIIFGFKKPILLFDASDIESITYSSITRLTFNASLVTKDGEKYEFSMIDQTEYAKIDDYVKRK
T1 chain 2: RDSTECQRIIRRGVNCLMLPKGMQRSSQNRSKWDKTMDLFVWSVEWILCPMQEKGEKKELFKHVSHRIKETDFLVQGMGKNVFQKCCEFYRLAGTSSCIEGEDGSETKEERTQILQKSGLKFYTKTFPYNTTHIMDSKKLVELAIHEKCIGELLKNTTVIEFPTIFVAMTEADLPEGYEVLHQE
As to the kind of experiment: ITC. (In general: In ITC the heat of successive injections is recorded.)

Experiment [3] addresses T2, Rtt106p_(65-301) (S. cerevisiae, UniProt P40161 65-301).
T2 chain: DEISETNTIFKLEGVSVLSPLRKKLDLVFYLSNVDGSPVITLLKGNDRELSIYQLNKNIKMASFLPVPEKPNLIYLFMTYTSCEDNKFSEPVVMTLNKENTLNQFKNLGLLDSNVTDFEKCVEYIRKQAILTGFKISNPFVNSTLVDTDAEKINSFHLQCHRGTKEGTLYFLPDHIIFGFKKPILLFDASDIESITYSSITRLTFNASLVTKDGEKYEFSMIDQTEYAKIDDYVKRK
Nature of the experiment: ITC.

The target in experiment [4] is T3, Rtt106p_(65-301) (S. cerevisiae, UniProt P40161 65-301).
T3 construct: Rtt106p, yeast, residues 65-301 (tandem PH domains); also called Rtt106_(65-301); source: E. coli BL21 pRARE2, purified
T3 sequence (looked up): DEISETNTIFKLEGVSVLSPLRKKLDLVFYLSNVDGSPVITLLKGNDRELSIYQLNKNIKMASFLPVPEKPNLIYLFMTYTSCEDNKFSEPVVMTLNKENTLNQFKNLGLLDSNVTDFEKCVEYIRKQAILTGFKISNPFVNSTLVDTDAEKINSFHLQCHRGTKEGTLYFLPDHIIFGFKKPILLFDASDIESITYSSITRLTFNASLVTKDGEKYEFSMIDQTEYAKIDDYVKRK
As to the kind of experiment: ITC; H3K56ac peptide (2 mM) as the titrant into 200 μM Rtt106p_(65-301) with or without Bcd1p_(120-303). The note with it: both partners purified.

Experiment [5] addresses T4, Rtt106p_(65-301) bound to Bcd1p_(120-303) (S. cerevisiae, UniProt P40161 65-301; P38772 120-303).
T4 construct: Rtt106p, yeast, residues 65-301; as the chain of m19; as the chain of m18; Formed before titration with the H3K56ac peptide; source: E. coli BL21 pRARE2, purified proteins, mixed; not shown: His6, N-terminal, cleaved; copies: 1 + 1
T4 sequence (looked up) 1: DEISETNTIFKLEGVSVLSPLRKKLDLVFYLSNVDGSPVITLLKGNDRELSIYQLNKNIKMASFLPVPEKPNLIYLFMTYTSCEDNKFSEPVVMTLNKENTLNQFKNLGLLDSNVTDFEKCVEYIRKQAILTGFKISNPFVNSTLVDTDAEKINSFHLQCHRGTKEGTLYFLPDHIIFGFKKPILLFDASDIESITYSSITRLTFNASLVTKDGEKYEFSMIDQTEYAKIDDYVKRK
T4 sequence (looked up) 2: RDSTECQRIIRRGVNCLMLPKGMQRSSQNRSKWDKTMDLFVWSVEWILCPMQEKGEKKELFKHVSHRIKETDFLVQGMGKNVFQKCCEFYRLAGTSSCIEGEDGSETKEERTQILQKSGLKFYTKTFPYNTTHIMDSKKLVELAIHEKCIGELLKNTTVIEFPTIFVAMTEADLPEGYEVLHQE
Described as above. The note with it: both partners purified.

Experiment [6] deals with T5, recombinant fragment Rtt106p-M (Rtt106p_(65-320)), purified (S. cerevisiae, UniProt P40161 65-320).
T5 chain: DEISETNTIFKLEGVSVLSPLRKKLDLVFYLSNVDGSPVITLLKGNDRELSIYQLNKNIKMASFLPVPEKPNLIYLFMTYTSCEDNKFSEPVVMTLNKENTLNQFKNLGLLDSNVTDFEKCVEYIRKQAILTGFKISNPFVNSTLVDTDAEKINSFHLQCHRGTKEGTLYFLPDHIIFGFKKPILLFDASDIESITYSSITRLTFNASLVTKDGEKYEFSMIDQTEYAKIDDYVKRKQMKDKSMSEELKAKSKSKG
As to the kind of experiment: ITC.

Experiment [7] addresses T3, Rtt106p_(65-301). Nature of the experiment: ITC; 293 K, 10 mM NaPi pH 7.5, 150 mM NaCl, 0.5 mM TCEP; 40 μM titrated, 400 μM titrant. The note with it: both partners purified.
For experiment [8], the target named is B1. Nature of the experiment: native MS; individual partners and co-purified complex in 150 mM ammonium acetate pH 7.5, nanoESI, nondenaturing conditions. The note with it: both partners purified.

Turning to B1, the Kd in experiment [1] was 1170 ± 170 nM.

B2: H3K56ac (IRRFQKacSTELL) peptide (peptide)
peptide: IRRFQK(Ac)STELL
notes: histone H3 stretch around lysine 56, acetylated at K56; also called acetylated peptide; source: synthetic peptide, bought: Proteogenix
Turning to B2, the Kd is 649000 nM in experiment [2] and 714000 nM in the experiment with Rtt106p_(65-301) [3]. For the same molecule, the binding result (with Rtt106p_(65-301) [4]; in experiment [5]) was “binds” in each case.

B3: Bcd1p120-366 (protein)
chain: RDSTECQRIIRRGVNCLMLPKGMQRSSQNRSKWDKTMDLFVWSVEWILCPMQEKGEKKELFKHVSHRIKETDFLVQGMGKNVFQKCCEFYRLAGTSSCIEGEDGSETKEERTQILQKSGLKFYTKTFPYNTTHIMDSKKLVELAIHEKCIGELLKNTTVIEFPTIFVAMTEADLPEGYEVLHQEPRPLEHTSTLNKFIDNAREEEDAEEDSQPTEEPVQKETQDASDSDSDSDDDYNPGLSMDFLTA
As to B3, in experiment [6], the Kd came to 1740 nM.

B4: Bcd1p_(120-303) (domain or fragment, S. cerevisiae, UniProt P38772 120-303, looked up)
chain: RDSTECQRIIRRGVNCLMLPKGMQRSSQNRSKWDKTMDLFVWSVEWILCPMQEKGEKKELFKHVSHRIKETDFLVQGMGKNVFQKCCEFYRLAGTSSCIEGEDGSETKEERTQILQKSGLKFYTKTFPYNTTHIMDSKKLVELAIHEKCIGELLKNTTVIEFPTIFVAMTEADLPEGYEVLHQE
notes: Tag removal is told for the NMR preparation; the preparation for ITC is not described separately; source: E. coli BL21 pRARE2, purified (TALON, PreScission cleavage, gel filtration); not shown: His6, N-terminal, cleaved
Take B4: the Kd in experiment [6] turned out to be 1160 nM; with Rtt106p_(65-301) [3], 1630 nM; with Rtt106p_(65-301) [7], 940 ± 60 nM.
In the case of B5, the “stoichiometry N” value in experiment [8] is 1.

For orientation: Kd means the free concentration of one partner at which half of the binding sites on the other are occupied at equilibrium, for simple one-to-one binding. For orientation: stoichiometry N means a count of units in the complex or per binding partner.
